Source: patent US7842460

Columns and labels:
[1] = biological target: ISG15-PLA2mX fusion (mouse) (UniProt Q9QXX3); experiment: cell-based or functional assay
Ubiquitin-PLA2mX fusion = biological target: T1, Ubiquitin-PLA2mX fusion (UniProt Q9QXX3)
T1 sequence: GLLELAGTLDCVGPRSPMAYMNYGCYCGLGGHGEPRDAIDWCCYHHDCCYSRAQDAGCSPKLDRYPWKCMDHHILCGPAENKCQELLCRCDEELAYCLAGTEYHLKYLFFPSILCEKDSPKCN

Substance	rate of PLA2 activity (fluorescent lipid substrate), extracts of UBP43-transfected against non-transfected HEK293T cells [1]	Ratio of PLA2 activity, fusion with isopeptidase over fusion without (Ubiquitin-PLA2mX fusion)	cleavage of the fusion by SDS-PAGE (10 ug fusion, 3 ug core domain of USP2) (Ubiquitin-PLA2mX fusion)
UBP43, the ISG15-specific isopeptidase (enzyme)	4 fold	–	–
core domain of USP2 (shared core enzymatic domain of the spliced USP2 product, either USP2a or USP2b)	–	9.37	complete cleavage of the fused Ub-PLA2mX was seen
